Measured values published in patent publication US6022720A, “Bax protein channel formation” (Glaxo Wellcome Inc., priority 1997, dated 2000).

Key:
[1] = system: sympathetic neurons; experiment: Lytic effects of added protein on sympathetic neurons; assay type: cell-based; settings: coaddition of control protein with 10 μM Bax
Description: The effect of soluble recombinant Bax and Bcl-2 on the integrity of sympathetic neurons and sheep erythrocytes was tested. Ten μM Bax protein was added to serum-free medium of sympathetic neurons. […] (see FIG. 7B).

[2] = target: T1, Bax (Homo sapiens, UniProt Q07812); experiment: Inhibition of Bax-induced release of carboxyfluorescein from liposomes; assay type: biochemical; settings: control protein preincubated with liposomes before Bax 70 nm
T1 construct: GST (pGEX2T, thrombin site) (N, cleaved yes); made in house; host or cells: E. coli PR745
Description: To determine whether Bax was a pore-forming protein, a study was undertaken to determine whether Bax could trigger the release of liposome-encapsulated carboxyfluorescein. […] The liposomes were dialyzed for 24 hours against PBS and diluted to 8 ml. For analysis at acidic pH, fluorescence of released dye was measured after adjustment of pH to 7.5 by addition of 1 M Tris-HCl pH 7.5.
In each test 20 μl of liposomes containing 20 mM carboxyfluorescein was diluted in 1 ml of PBS (pH 7.5) and 5 μl of purified protein was added at the time indicated by the arrow. Incubation was performed at room temperature. Final Bax concentrations are indicated for each curve (see FIG. 8A). Bcl-2 was tested at 70 nM. Each curve of FIG. 8A was normalized by subtraction of the initial fluorescence value obtained at time 0.
Liposomes (20 μl in 1 ml PBS) were first incubated (15 min at room temperature) with Bcl-2 or with a control protein (stathmin) before addition of Bax (70 nm) to the liposome solution.
After addition of the compound, 80 nM Bax was added to the liposome suspension and the fluorescence measured with a spectrofluorimeter.

T1 sequence (Q07812 with tags, fused parts or gaps limits assumed): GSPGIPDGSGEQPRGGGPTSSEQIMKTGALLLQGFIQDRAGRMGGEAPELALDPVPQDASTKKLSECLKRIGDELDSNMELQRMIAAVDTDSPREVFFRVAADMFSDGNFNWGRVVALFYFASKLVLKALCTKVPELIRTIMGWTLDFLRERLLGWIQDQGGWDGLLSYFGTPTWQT

With “ERK2: control protein [reference compound]” the “effect on Bax-induced neuronal lysis upon coaddition” value [1] was “no effect”.

B1: stathmin: unrelated control protein (protein, UniProt P16949 2-149, looked up)
Stathmin: ASSDIQVKELEKRASGQAFELILSPRSKESVPEFPLSPPKKKDLSLEEIQKKLEAAEERRKSHEAEVLKQLAEKREHEKEVLQKAIEENNNFSKMAEEKLTHKMEANKENREAQMAAKLERLREKDKHIEEVRKNKESKDPADETEAD
For B1, the “effect on Bax function (carboxyfluorescein efflux)” value [2] was “no adverse effect” and the “effect on Bax-induced neuronal lysis upon coaddition” value [1] was “no effect”.
